Measured values taken from publication PMC7438317.

Target: GST-(PreScission site)-CYK-4 aa 146–190, phosphorylated by PLK-1 (C. elegans)
Assay: pull-down

Substance: ECT-2 aa 1–320 (ECT-2 BRCT module) (domain or fragment)
- fold increase in binding against the unphosphorylated WT CYK-4 fragment: 4 fold
